Laboratory results taken from the DeepSol protein solubility set.

Assay: soluble on expression in E. coli; label from the status in PepcDB or PDB records

| Sequence | soluble on expression in E. coli |
| --- | --- |
| MGSDKIHHHHHHMNIPNIRLLNQQLLNPLFREPKELVSWMGAMQAQNYSMVKWAVGMRLKSATIQTVEKALREGEILRTHVMRPTWHLVAAEDIRWMLKLSAQRIISANDSFAKGYDLDIPNELYTKAHDLLEKILCGKKSLTKQEIAEHFNRSGIVADNRRMTRFMARAEQEGIICSGEDRGSKCTYALLEERVPPMPELTKDESLARLARSYFRSHSPAVLQDFIWWSGLSVSDAKQAVYLIASELITEQWKEQTWYIHDICRTRGKLSGHIHLLPSYDEYLLGYKDRTDVLPLEHYSKAFTNNGLFFPIVLHNGQVIGNWDKSVKKKSVDLKYSWFRQVADMNEETLERERQKFTRFLEK | not soluble |
| EKITILADAIPELHVEEANDKVMGSIDWEAALKQSAGKEDLAQEMLQMLVDFIPEVNEWIDKALESDISEEELCHYIHKLHGSSSYCGVPRLKQLCNLIETSLRQHQTISDIEPELFELQDEMEKVTKDANLLLSN | not soluble |
| MGSDKIHHHHHHMKVLFTFGGIPHYLNAMLNRLQAKGVEITVVSPKKGNTTIGKGVKMVEGGTYKHLTTPEKKMFYGKSAFPALPEIIAEEKPDIVVVGWPYFLQVFFQPALRKAMKSCNAKLVIREIPFQTPPYGKIKEYFKANPMHDEGMRLLSKGIGFYLRQWITARIRKYCYAQAAGTLNYSTAAYDILPSYGVKKEQIHVTYNSTDTEALLKEKESVLASPSILPPCDRRLLHIGRLVKWKRVDLLIEAFRKVATDYPEAELVIVGDGPELDNLRQQANDLQLADSIRFIGAVYDPKTLGAYMNESSIYVLAGMGGLSINDAMTYGMPVLCAVCDSTERDLVMEGKNGYFFKDGDADSLAGRIREMFESPERCKEMGKESERMIREKINMETVSERYLKAFQEILRLTHLRDSGN | not soluble |
| MSLSSANGGHVDQSDHLALLPPNVRKKGRPTLVLDLDATLFYTSAELLNTPLDYFDMGEESTYRYLYLRPYALDFLGWASTVFEVIIWTAAMESYAEPRIRATEIDRYADVVLYRGACDMIDGSLVKNLAKLGRPLSDMIIVDDNPVSYALNVELAYPIPPFSGEEDDLELLRLVPILRKVLELSSLKRGIYKTIFSEGHHHHHH | soluble |
| MGSDKIHHHHHHMTSETVLEIRNVSKHFGAVKALTAVDFRLARGEVHALCGENGAGKSTLMNVIAGVLQPSEGEVLIEGAPVKIASPAVAQSLGIALVHQEIALCPDATIAENMFMAATNRRRSALMNYAQLERDAQAVMNRLAPIDVSQKVGDLPISSQQLVEIAKALTLDCRVLIFDEPTAALTETEAQVLFGIIRDLKARGISIIYISHRMAEVFSLCDRVTVFRDGRYVATEMVSDVTPDDVVRLMVGREISQLYPDKQPSSERLGEPILSVRDLGGERFRDVSFELRYGEILGVGGLIGSGRTEIAEGICALRPVTQGEIRLHDKVLRLRRYSDAAKAGVVYLSEDRKGSGVFLDLSIAQNIAALDLKALTSLGLLNSREERALAEDLTRRLGVRMGGVDMPVSSLSGGNQQKVAIAKQLAVDPKVILMDEPTRGIDVGAKSEIHRLLRELARAGIGILVISSELPELIGLCDRVLVVREGRIAGEVSGNEMTEEVIMRLASGIGPATETNLKASGHAA | not soluble |
| GPGSMEARGNVDGEKFRSINTLRTRFPALTVSDARALLERHNWNVAIAGAEAERGERQRTKADSANYFVGGGDKGSGQQVMAPSGESVSDRSGEIASGSGVHSMIDRIFRKAEVEGAKASGGDGGSGVEDNEPRAFYGRGQRLGYTANPSPYVASTLRAERSVCITVYRDGFEVDSNGFVPLNSDEGRQFVEAMDKGYVPPSLAAKYPNTDLTVNLRDCLQVDYVPPSYIAFQGDGHRLAAPSSTAASSAAPANAQASPATAGRSGTPAYDPSRTVEVRSDEATSFVVLLNTRGERRQVQVNPERHTVDDLYSLAHAYQPELQNFILVERGMPPRRLEASTRSQTIAQAKLSRAVVALQQM | soluble |
| VRMVGLTIETRPDWAFERQIDRMLAFGTTRVELGVQTIFNFIHERVGRGHGVEEIIKATQLLRDAGLKINYHIMPGLPGSNFERDLYVFKTIFEDPRFRPDMLKIYPTLVTRDAPLYAWYKAGLYKPYTTEEAVELLVEAYKIFPKWVRVMRIQRDIPSHLIVAGVKHSNLGQLVFEELVRRGIRPREI | not soluble |
| AHHHHHHGSYDELFKKIKEKAKFVDEKLLSLIPEKEPKILYEAARHYPLAGGKRVRPFVVLTATEAVGGEWEKAIYPAVAIELIHNYSLVHDDIMDMDETRRGRPTVHKVWGINMAILAGDLLFSKAFEAISRAEIPPEKKARVLETVVKASNELCEGQAMDLEFEKRDTVTIEEYMRMISGKTGALFDASAKVGGIVGTDNEEYINALSTWGRNVGIAFQIWDDVLDLIADEEKLGKPVGSDIRKGKKTLIVAHFFENADEKDKQKFLKVFGKYAGDVKGEGIIEEDIKAEVMEAIDLLKKYGSIDYAANIAREMVKKANEALKVLPESEARKDLELLARFIVEREY | soluble |
| MAIKDAIEKIVSYFDADEVTDHEDVAKERPVKVQKTEQTPSQQQRKPERPQETVPPRRQHIKSDVQETQVLRSLSLSRSQVNQGSQQMNTTKTTIAIKYPKKYEDAQEIVELLIENECVLIDFQYMLEAQARRCLDFIDGASKVLTGNLQKVGSSMYLLTPINVVVDIEEIGLSHGNQESTFDFDMKRRLEHHHHHH | not soluble |
| MGHHHHHHSHMRLTLLCCTWREERMGEEGSELPVCASCGQRIYDGQYLQALNADWHADCFRCCDCSASLSHQYYEKDGQLFCKKDYWARYGESCHGCSEQITKGLVMVAGELKYHPECFICLTCGTFIGDGDTYTLVEHSKLYCGHCYYQTVVTPVIEQILPDSPGSHLPHTVTLVSIPASSHGKRGLSVSIDPPHGPPGCGTEHSHTVRVQGVDPGCMSPDVKNSIHVGDRILEINGTPIRNVPLDEIDLLIQETSRLLQLTLEHDPHDTLGHGLGPETSPLSSPAYTPSGEAGSSARQKPVLRSCSIDRSPGAGSLGSPASQRKDLGRSESLRVVCRPHRIFRPSDLIHGEVLGKGCFGQAIKVTHRETGEVMVMKELIRFDEETQRTFLKEVKVMRCLEHPNVLKFIGVLYKDKRLNFITEYIKGGTLRGIIKSMDSQYPWSQRVSFAKDIASGMAYLHSMNIIHRDLNSHNCLVRENKNVVVADFGLARLMVDEKTQPEGLRSL | soluble |
| SNAMANIKIRQETPTAFYIKVHDTDNVAIIVNDNGLKAGTRFPDGLELIEHIPQGHKVALLDIPANGEIIRYGEVIGYAVRAIPRGSWIDESMVVLPEA | soluble |
| MGSDKIHHHHHHMYLAYYGFAEKPFQLKPDPNFFFPSRGHKRAAAYLEYGLSQEDGFIIITGDVGAGKTTLMRYLFQKLRQERVAAAQLVSTRLDPDDALRMVAAAFGLSYEGLSKAALLLELERFMRKCERESTRVLLVVDEAQNLLPQTLEELRMLSNFQSDNRPLLQTFLLGQPEFRRTLLGSQMQQLRQRVIATYHLGPLDQAETRAYIEHRLQKAGWNGSPVLQDEIFEVIHNFSAGIPRKINLFCDRLLIMGCLEELQTLGKAEANEVMLDIQKEFDLAVSPE | not soluble |
| MDYFNIFAYGELMKDEILFELINRVPEKNLGKIYNFEKFFDEKIGYYGIKPKENSSISGIILFNINSTELEIFDDYEDEGTYYSKNKTICYDLNGKGYESYVYVRLELEHHHHHH | not soluble |
| MFAPALAYPRPMPELPEVETTRRKIEPLLRGKTIERIVHDAPHRYRNTERAHGRQVRGLTRRGKYLLLHLAAADAAEDEPHDLELIVHLGMTGGFRLEEGPHTRVTFELGSGEKLYFNDPRRFGKVVAVAPGDYASMPTLAAMGPEPLSDDFTEAEFVALAARCGPVKPWLLSQKPVSGVGNIYADESLWHARLHPAQTRLNADEAGRLYRAIREVMAAAVDKGGSSLGNGVGNYRQHDGEGGGFQHSHHVYGRAGQPCDRCGTPIEKIVLGQRGTHFCPVCQPLRTDRSA | not soluble |
| MGHHHHHHSHMAQSINITELNLPQLEMLKNQLDQEVEFLSTSIAQLKVVQTKYVEAKDCLNVLNKSNEGKELLVPLTSSMYVPGKLHDVEHVLIDVGTGYYVEKTAEDAKDFFKRKIDFLTKQMEKIQPALQEKHAMKQAVMEMMSQKIQQLTALGAAQATAKA | not soluble |
| MPAPLTFARLTQVDPNLITAHMRDPRLAIHMPLMPDSWSDAQTVSFVQSKEACWDRDGLGHWAFLHQDRYVGWGGFQREGEEWDFGLVLCPAHFGLGLPIARKALDFAHADPRIPFVTFLLPPSRQHLGALRRLGAQPLGETDHAGHRFLKFRLDTA | not soluble |
| MEHTIAVIPGSFDPITYGHLDIIERSTDRFDEIHVCVLKNSKKEGTFSLEERMDLIEQSVKHLPNVKVHQFSGLLVDYCEQVGAKTIIRGLRAVSDFEYELRLTSMNKKLNNEIETLYMMSSTNYSFISSSIVKEVAAYRADISEFVPPYVEKALKKKFKLEHHHHHH | soluble |
| MSKVLELAKELGAEVIQTHTSWVLLLKDVVYKIKKPVNFGFLDYSTLEKRKEMCYKEVELNRRLCPWVYIGVVPISEVKGKWVIENDENVVEYAVKMRRIPDEAILSNRLDKTTEEDLKKVAKVVADFHVRAKRVDEFGKMEVMKYNTDENFAQTEKYIGITISKEDYDFIKRKTNEFYEKHADIFEKRIKEGRIRDGHGDIRTEHVAFLEEGVCIFDCIEFNDRFRYGDVLNDMCFLSMELEYFGREYLARAYEEEYRRISKDPDFDLMLPFFKCYRAYVRGKVNSFLLDDPNLTQEEKEKAKERATKFFKLARTYAEMIK | not soluble |
| MVKAISTEKDLLLKVDKSFPWETFRSKLKSLYSKKPKWNVISLLKVLLIKLIFDISWNNLEGEIRDSKMFMDFLGGKIPPKSTVFSFYKKLQQTVIQEGETMRTTLMDELNKALDKAISEYREKGFELEVGREKKTEKVSKGTYPPKIDTFLPVKPYPREKRSLSKTGSLEHHHHHH | soluble |
| QLLEPIRDFEARKCPVHGKTMELFCQTDQTCICYLCMFQEHKNHSTVTVEEAKAEKETE | soluble |
| MAHHHHHHMQMRWIVDAEERYRRSLTWKPAVGTIYDHKIVMKRGGSSHVQYRFDVDGKEYLGDRFRSGGVHKEEMVSNPALLGAGTQLVVYYNPSDPSESAIKLQTDRAAESAFLVGITISLLVAYRSVRCETILPNMFYSFLAVNRRLGGITGLREARTHSKQKMKYGKGTGAI | not soluble |
